According to IntAct's records for PubMed 18275819:

Target: cac1c_human CACNA1C (UniProt Q13936)
Sequence (Q13936 whole entry): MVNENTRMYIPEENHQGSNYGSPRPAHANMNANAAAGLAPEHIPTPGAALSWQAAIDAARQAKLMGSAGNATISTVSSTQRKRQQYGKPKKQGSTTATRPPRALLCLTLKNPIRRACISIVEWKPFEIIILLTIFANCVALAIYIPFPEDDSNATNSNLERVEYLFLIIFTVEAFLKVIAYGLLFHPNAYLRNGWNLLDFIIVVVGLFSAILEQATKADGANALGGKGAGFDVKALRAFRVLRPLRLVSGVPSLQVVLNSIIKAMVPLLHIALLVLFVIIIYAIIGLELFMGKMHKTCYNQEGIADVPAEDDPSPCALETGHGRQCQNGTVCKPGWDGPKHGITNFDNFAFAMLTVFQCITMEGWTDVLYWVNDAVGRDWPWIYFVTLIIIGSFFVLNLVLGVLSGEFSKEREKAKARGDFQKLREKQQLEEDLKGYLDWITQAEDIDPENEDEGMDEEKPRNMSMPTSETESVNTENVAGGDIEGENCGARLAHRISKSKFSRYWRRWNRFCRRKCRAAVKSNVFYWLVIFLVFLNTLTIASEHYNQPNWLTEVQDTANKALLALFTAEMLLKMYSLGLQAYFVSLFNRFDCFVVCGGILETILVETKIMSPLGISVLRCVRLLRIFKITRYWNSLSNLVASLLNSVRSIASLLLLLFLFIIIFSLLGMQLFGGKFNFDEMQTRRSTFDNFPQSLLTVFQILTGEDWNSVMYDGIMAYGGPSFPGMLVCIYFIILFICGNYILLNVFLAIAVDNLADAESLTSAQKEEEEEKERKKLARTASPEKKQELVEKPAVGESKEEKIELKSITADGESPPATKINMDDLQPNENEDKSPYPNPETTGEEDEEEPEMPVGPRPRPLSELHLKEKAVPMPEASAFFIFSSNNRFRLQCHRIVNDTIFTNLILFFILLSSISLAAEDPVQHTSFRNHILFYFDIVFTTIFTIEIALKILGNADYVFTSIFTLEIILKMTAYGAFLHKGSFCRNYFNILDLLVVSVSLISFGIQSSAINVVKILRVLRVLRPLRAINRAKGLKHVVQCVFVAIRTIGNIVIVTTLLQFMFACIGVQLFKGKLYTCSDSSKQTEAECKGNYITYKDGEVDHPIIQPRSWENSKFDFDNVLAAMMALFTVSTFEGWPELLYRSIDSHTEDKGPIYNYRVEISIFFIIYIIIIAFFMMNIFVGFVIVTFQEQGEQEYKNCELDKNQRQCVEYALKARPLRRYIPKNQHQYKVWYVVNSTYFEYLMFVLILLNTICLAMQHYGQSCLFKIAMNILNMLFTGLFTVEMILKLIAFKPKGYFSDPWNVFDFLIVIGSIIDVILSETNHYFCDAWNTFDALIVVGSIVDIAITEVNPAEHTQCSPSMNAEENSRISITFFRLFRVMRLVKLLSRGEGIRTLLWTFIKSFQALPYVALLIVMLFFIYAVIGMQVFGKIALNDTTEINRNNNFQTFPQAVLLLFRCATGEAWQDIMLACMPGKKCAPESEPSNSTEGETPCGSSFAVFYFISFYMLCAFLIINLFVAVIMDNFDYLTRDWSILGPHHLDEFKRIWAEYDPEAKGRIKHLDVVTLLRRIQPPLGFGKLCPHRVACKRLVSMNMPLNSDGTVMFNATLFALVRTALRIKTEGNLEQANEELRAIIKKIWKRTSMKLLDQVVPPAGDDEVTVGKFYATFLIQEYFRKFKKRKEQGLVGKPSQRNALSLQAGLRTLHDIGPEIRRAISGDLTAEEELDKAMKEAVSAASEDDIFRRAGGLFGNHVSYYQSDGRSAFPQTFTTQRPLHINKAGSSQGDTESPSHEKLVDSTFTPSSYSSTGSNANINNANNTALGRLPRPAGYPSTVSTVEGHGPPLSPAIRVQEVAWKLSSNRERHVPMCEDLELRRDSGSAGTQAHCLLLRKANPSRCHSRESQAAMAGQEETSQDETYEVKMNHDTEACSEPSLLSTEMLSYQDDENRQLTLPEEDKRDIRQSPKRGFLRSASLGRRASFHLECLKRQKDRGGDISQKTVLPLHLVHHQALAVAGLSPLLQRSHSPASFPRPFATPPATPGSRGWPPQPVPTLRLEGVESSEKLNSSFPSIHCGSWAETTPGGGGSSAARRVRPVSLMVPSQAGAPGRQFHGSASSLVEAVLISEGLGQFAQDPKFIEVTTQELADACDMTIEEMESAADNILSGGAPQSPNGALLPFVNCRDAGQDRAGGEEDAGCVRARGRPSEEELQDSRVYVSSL

effect of a mutation on the interaction: decreasing interaction
Substance: Voltage-dependent L-type calcium channel subunit beta-2 (Rattus norvegicus (Rat)), Q8VGC3-2 M245A
